Measured values from patent US20240209409A1 (AJINOMOTO, published 2024).
One block for each binder: values may come before it. Where no end group is shown, it is not given here. [ ]: non-standard residue; d: D form. Phe(4-N3) = [N-]=[N+]=Nc1ccc(C[C@H](N)C(=O)O)cc1

What was measured:
[1] = target: T1, EPOR (UniProt P19235 25-508, limits assumed); test: cell-based or functional assay
T1 sequence (looked up): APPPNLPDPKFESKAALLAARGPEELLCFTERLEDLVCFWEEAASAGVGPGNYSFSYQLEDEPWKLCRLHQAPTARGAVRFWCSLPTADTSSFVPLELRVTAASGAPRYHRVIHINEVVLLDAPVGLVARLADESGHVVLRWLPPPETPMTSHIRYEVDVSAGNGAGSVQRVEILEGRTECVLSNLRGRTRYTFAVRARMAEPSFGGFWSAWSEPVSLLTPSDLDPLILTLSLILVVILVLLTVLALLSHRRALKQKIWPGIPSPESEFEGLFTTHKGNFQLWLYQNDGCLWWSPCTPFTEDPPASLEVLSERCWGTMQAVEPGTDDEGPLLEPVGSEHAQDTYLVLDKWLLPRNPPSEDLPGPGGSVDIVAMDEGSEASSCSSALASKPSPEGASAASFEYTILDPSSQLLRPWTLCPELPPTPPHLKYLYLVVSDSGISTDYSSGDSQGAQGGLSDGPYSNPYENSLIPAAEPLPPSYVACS

[2] = target: Met (UniProt P08581 25-1390, limits assumed); test: cell-based or functional assay
Met, sequence (P08581 25-1390 limits assumed): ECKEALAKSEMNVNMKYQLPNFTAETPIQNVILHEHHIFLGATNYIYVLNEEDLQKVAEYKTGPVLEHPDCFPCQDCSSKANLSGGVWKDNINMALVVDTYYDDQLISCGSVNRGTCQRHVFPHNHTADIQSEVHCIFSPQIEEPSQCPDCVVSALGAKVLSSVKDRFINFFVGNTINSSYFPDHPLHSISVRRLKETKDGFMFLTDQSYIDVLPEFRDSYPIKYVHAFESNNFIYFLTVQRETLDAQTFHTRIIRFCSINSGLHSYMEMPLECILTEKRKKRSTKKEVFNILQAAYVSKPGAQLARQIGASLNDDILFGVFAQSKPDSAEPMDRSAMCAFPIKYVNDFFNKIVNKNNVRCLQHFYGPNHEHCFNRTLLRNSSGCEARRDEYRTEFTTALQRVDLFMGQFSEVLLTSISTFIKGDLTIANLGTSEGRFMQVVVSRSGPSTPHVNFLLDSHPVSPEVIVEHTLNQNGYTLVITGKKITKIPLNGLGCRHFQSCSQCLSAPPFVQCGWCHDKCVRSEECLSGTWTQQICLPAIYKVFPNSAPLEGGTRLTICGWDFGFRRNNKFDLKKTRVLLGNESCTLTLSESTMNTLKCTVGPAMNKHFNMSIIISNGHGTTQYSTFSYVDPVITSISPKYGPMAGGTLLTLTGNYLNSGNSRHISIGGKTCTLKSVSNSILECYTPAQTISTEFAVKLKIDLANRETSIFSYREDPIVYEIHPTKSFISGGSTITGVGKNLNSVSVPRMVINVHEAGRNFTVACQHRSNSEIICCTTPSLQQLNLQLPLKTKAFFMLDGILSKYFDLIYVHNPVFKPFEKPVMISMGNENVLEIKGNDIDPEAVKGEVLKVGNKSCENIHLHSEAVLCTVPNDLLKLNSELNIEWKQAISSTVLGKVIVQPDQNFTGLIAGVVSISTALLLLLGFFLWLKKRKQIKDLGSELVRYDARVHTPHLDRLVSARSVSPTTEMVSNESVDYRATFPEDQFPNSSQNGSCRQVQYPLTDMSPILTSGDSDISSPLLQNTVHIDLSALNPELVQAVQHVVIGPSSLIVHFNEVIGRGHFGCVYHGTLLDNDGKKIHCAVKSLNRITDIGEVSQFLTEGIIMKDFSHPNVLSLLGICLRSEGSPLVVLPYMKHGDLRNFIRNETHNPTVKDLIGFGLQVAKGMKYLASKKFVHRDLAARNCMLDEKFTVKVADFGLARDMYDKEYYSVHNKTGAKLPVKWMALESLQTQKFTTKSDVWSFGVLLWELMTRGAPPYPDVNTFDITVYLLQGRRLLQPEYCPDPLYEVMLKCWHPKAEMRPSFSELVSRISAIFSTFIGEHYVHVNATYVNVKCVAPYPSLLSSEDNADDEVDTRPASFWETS

B2: L1-AzF-aMD4dY-PA22 (peptide)
chain: AETCRQFNRRTHEVWNLDCGAAPAAPAPAAPA[Phe(4-N3)]APAPAAPAAPGCRQFNRRTHEVWNLDC
modifications: cysteine pairing not given here
reporter activity (SRE reporter, firefly/Renilla luciferase, HEK293 cells, relative to Mock); PEG- sample, 2500-fold diluted [2]: > 10 times that of Mock

B3: N-AzF-aMD4dY-PA22 (peptide)
chain: AET[Phe(4-N3)]CRQFNRRTHEVWNLDCGAAPAAPAPAAPAAPAPAAPAAPGCRQFNRRTHEVWNLDC
modifications: cysteine pairing not given here
reporter activity (SRE reporter, firefly/Renilla luciferase, HEK293 cells, relative to Mock); PEG- sample, 2500-fold diluted [2]: > 10 times that of Mock

B8: N-AzF-EPO-PA22 (peptide)
chain: AET[Phe(4-N3)]GGLYACHMGPMTWVCQPLRGAAPAAPAPAAPAAPAPAAPAAPGGLYACHMGPMTWVCQPLRG
reporter activity (PathHunter eXpress EpoR-JAK2 Functional Assay, chemiluminescence relative to Mock); PEG- sample, 1000-fold diluted [1]: > 1.5 times that of Mock

B11: L2-AzF-aMD4dY-PA22 (peptide)
chain: AETCRQFNRRTHEVWNLDCGAAPAAPAPAA[Phe(4-N3)]AAPAPAAPAAPGCRQFNRRTHEVWNLDC
modifications: cysteine pairing not given here
reporter activity (SRE reporter, firefly/Renilla luciferase, HEK293 cells, relative to Mock); PEG- sample, 2500-fold diluted [2]: > 10 times that of Mock

B12: L1-AzF-EPO-PA22 (peptide)
chain: AETGGLYACHMGPMTWVCQPLRGAAPAAPAPAAPA[Phe(4-N3)]APAPAAPAAPGGLYACHMGPMTWVCQPLRG
reporter activity (PathHunter eXpress EpoR-JAK2 Functional Assay, chemiluminescence relative to Mock); PEG- sample, 1000-fold diluted [1]: > 1.5 times that of Mock

B13: L1-AzF-EPO-PA22 PEG-modified using m-dPEG24-DBCO (peptide)
chain: AETGGLYACHMGPMTWVCQPLRGAAPAAPAPAAPA[Phe(4-N3)](m‑dPEG24‑DBCO)APAPAAPAAPGGLYACHMGPMTWVCQPLRG
reporter activity (PathHunter eXpress EpoR-JAK2 Functional Assay, chemiluminescence relative to Mock); PEG+ sample, 1000-fold diluted [1]: > 1.5 times that of Mock

B14: L1-AzF-aMD4dY-PA22 PEG-modified using m-dPEG24-DBCO (peptide)
chain: AETCRQFNRRTHEVWNLDCGAAPAAPAPAAPA[Phe(4-N3)](m‑dPEG24‑DBCO)APAPAAPAAPGCRQFNRRTHEVWNLDC
modifications: cysteine pairing not given here
reporter activity (SRE reporter, firefly/Renilla luciferase, HEK293 cells, relative to Mock); PEG+ sample, 2500-fold diluted [2]: > 10 times that of Mock

Other lines, results leading:

reporter activity (PathHunter eXpress EpoR-JAK2 Functional Assay, chemiluminescence relative to Mock); PEG+ sample, 1000-fold diluted [1]: > 1.5 times that of Mock
B1: N-AzF-EPO-PA22 PEG-modified using m-dPEG24-DBCO (peptide)
chain: AET[Phe(4-N3)](m‑dPEG24‑DBCO)GGLYACHMGPMTWVCQPLRGAAPAAPAPAAPAAPAPAAPAAPGGLYACHMGPMTWVCQPLRG

reporter activity (PathHunter eXpress EpoR-JAK2 Functional Assay, chemiluminescence relative to Mock); PEG+ sample, 1000-fold diluted [1]: > 1.5 times that of Mock
B4: L2-AzF-EPO-PA22 PEG-modified using m-dPEG24-DBCO (peptide)
chain: AETGGLYACHMGPMTWVCQPLRGAAPAAPAPAA[Phe(4-N3)](m‑dPEG24‑DBCO)AAPAPAAPAAPGGLYACHMGPMTWVCQPLRG

reporter activity (SRE reporter, firefly/Renilla luciferase, HEK293 cells, relative to Mock); PEG+ sample, 2500-fold diluted [2]: > 10 times that of Mock
B5: N-AzF-aMD4dY-PA22 PEG-modified using m-dPEG24-DBCO (peptide)
chain: AET[Phe(4-N3)](m‑dPEG24‑DBCO)CRQFNRRTHEVWNLDCGAAPAAPAPAAPAAPAPAAPAAPGCRQFNRRTHEVWNLDC
modifications: cysteine pairing not given here

reporter activity (SRE reporter, firefly/Renilla luciferase, HEK293 cells, relative to Mock); PEG+ sample, 2500-fold diluted [2]: > 10 times that of Mock
B6: L2-AzF-aMD4dY-PA22 PEG-modified using m-dPEG24-DBCO (peptide)
chain: AETCRQFNRRTHEVWNLDCGAAPAAPAPAA[Phe(4-N3)](m‑dPEG24‑DBCO)AAPAPAAPAAPGCRQFNRRTHEVWNLDC
modifications: cysteine pairing not given here

reporter activity (SRE reporter, firefly/Renilla luciferase, HEK293 cells, relative to Mock); PEG+ sample (WT treated with m-dPEG24-DBCO, not modified), 2500-fold diluted [2]: > 10 times that of Mock
reporter activity (SRE reporter, firefly/Renilla luciferase, HEK293 cells, relative to Mock); PEG- sample, 2500-fold diluted [2]: > 10 times that of Mock
B7: WT-aMD4dY-PA22 (peptide)
chain: AETCRQFNRRTHEVWNLDCGAAPAAPAPAAPAAPAPAAPAAPGCRQFNRRTHEVWNLDC

reporter activity (PathHunter eXpress EpoR-JAK2 Functional Assay, chemiluminescence relative to Mock); PEG- sample, 1000-fold diluted [1]: > 1.5 times that of Mock
B9: L2-AzF-EPO-PA22 (peptide)
chain: AETGGLYACHMGPMTWVCQPLRGAAPAAPAPAA[Phe(4-N3)]AAPAPAAPAAPGGLYACHMGPMTWVCQPLRG

reporter activity (PathHunter eXpress EpoR-JAK2 Functional Assay, chemiluminescence relative to Mock); PEG+ sample (WT treated with m-dPEG24-DBCO, not modified), 1000-fold diluted [1]: > 1.5 times that of Mock
reporter activity (PathHunter eXpress EpoR-JAK2 Functional Assay, chemiluminescence relative to Mock); PEG- sample, 1000-fold diluted [1]: > 1.5 times that of Mock
B10: WT-EPO-PA22 (peptide)
chain: AETGGLYACHMGPMTWVCQPLRGAAPAAPAPAAPAAPAPAAPAAPGGLYACHMGPMTWVCQPLRG
